Test results taken from patent US11266675.

Target: Heat shock cognate protein 70 (Hsc70) (UniProt P11142)
Sequence (P11142 2-646): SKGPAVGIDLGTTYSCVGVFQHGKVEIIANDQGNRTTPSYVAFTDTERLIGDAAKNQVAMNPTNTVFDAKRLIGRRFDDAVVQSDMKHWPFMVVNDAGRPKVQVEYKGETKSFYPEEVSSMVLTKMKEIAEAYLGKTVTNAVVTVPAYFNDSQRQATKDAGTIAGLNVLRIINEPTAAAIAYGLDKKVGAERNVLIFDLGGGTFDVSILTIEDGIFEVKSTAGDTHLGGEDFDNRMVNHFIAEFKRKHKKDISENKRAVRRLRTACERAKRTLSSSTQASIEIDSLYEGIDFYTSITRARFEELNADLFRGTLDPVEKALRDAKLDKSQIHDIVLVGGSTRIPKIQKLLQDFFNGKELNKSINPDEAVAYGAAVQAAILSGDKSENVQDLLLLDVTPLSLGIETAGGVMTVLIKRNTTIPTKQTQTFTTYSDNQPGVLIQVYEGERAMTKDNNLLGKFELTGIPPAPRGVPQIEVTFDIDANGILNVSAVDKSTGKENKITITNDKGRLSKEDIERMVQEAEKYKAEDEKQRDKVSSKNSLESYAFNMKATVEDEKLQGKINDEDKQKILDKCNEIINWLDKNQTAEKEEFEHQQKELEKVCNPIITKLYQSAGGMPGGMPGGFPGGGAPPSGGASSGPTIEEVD

Substance: recombinant His-tagged 2A^pro (2A protease of EV-A71)
- cleavage of eIF4G by recombinant 2A^pro in vitro (immunoblot): the cleaved eIF4G was up-regulated in Hsc70 overexpressed cells, indicating an increase of 2A^pro proteolytic activity upon increased Hsc70 level
